{
  "source": "paper PMC7736792",
  "system": "p44 (in p44/p62 complex);p62 (in p44/p62 complex) (Chaetomium thermophilum;Chaetomium thermophilum)",
  "assay": "fluorescence anisotropy",
  "conditions": "20 mM HEPES pH 7.5, 30 mM KCl, 5 mM MgCl2, 1 mM TCEP, 5 nM DNA, room temperature",
  "note": "pKd: −log10 of the molar value.",
  "data": [
    {"sequence": "GACTACGTACTGTTACGGCTCCATCTCTACCGCAATCAGGCCAGATCTGC / GCAGATCTGGCCTGATTGCGGTAGCGATGGAGCCGTAACAGTACGTAGTC [undamaged dsDNA 50 bp]", "values": [
      {"measurement": "pKd", "result": 5.93}
    ]},
    {"sequence": "GACTACGTACTGTTACGGCTCCATCTCTACCGCAATCAGGCCAGATCTGC [undamaged ssDNA 50 nt]", "values": [
      {"measurement": "pKd", "result": 6.08}
    ]},
    {"sequence": "TTTTTTTTTTTTTTTCCCGGCCATGCGAAGCATGGCCGGGTTTTT [open fork hairpin]", "values": [
      {"measurement": "pKd", "result": 6.68}
    ]}
  ]
}
